Conditions in all cases: both partners purified
In assay [1] the target is T1, cytochrome P450 3A4 (CYP3A4), human, C-terminally His-tagged, expressed from pB84 (human, UniProt P08684 1-503).
T1 construct: human cytochrome P450 3A4 with its own N-terminal membrane anchor domain; expressed with an OmpA leader that is cleaved off during membrane targeting; source: E. coli K12 JM109, solubilised with CHAPS, purified (Ni-NTA agarose); not shown: His-tag, C-terminal, kept
Briefly: absorbance spectroscopy of the co-purified nanodiscs (fit of a convolution spectrum); CPR-CYP3A4-nanodiscs of POPC after Ni-affinity and gel filtration; spectra of singly loaded nanodiscs as basis spectra. A general note: Size exclusion chromatography separates by hydrodynamic size, large species first.

Assay [2] concerns the target T1, cytochrome P450 3A4 (CYP3A4), human, …. The assay is described as follows: absorbance spectroscopy of the co-purified nanodiscs (fit of a convolution spectrum); CPR-CYP3A4-nanodiscs of bovine liver microsomal lipid after Ni-affinity and gel filtration; spectra of singly loaded nanodiscs as basis spectra. For orientation: Liver microsomes are vesicles of endoplasmic reticulum, rich in cytochrome P450 enzymes.

Assay [3] has the same target. The assay is described as follows: absorbance spectroscopy of the co-purified nanodiscs (fit of a convolution spectrum); CPR-CYP3A4-nanodiscs of mixed lipid (ER mimic) after Ni-affinity and gel filtration; spectra of singly loaded nanodiscs as basis spectra.

T1 sequence (P08684 whole entry, the tested form may be a part): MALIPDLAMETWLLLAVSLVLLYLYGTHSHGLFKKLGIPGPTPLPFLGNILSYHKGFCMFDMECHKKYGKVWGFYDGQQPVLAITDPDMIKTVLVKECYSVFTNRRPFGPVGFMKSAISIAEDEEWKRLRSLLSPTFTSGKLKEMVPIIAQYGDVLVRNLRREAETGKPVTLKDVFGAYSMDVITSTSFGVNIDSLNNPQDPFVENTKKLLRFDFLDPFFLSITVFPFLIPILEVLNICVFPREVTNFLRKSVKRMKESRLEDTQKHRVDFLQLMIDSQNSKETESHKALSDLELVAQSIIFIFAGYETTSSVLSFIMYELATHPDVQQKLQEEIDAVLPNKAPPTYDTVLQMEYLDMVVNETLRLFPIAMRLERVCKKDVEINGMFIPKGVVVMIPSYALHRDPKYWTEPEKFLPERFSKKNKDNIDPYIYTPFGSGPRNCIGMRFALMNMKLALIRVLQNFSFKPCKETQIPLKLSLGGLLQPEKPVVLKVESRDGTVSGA

B1: NADPH-dependent cytochrome P450 oxidoreductase (CPR), full-length human, expressed from pPORh1 (enzyme)
chain: GIPGSMGDSHVDTSSTVSEAVAEEVSLFSMTDMILFSLIVGLLTYWFLFRKKKEEVPEFTKIQTLTSSVRESSFVEKMKKTGRNIIVFYGSQTGTAEEFANRLSKDAHRYGMRGMSADPEEYDLADLSSLPEIDNALVVFCMATYGEGDPTDNAQDFYDWLQETDVDLSGVKFAVFGLGNKTYEHFNAMGKYVDKRLEQLGAQRIFELGLGDDDGNLEEDFITWREQFWPAVCEHFGVEATGEESSIRQYELVVHTDIDAAKVYMGEMGRLKSYENQKPPFDAKNPFLAAVTTNRKLNQGTERHLMHLELDISDSKIRYESGDHVAVYPANDSALVNQLGKILGADLDVVMSLNNLDEESNKKHPFPCPTSYRTALTYYLDITNPPRTNVLYELAQYASEPSEQELLRKMASSSGEGKELYLSWVVEARRHILAILQDCPSLRPPIDHLCELLPRLQARYYSIASSSKVHPNSVHICAVVVEYETKAGRINKGVATNWLRAKEPAGENGGRALVPMFVRKSQFRLPFKATTPVIMVGPGTGVAPFIGFIQERAWLRQQGKEVGETLLYYGCRRSDEDYLYREELAQFHRDGALTQLNVAFSREQSHKVYVQHLLKQDREHLWKLIEGGAHIYVCGDARNMARDVQNTFYDIVAELGAMEHAQAVDYIKKLMTKGRYSLDVWS
notes: printed in three-letter code as Gly-Iso-Pro-Gly-Ser; human NADPH-dependent cytochrome P450 reductase (CPR), full length with its N-terminal membrane anchor domain; Expressed with an N-terminal OmpA leader for periplasmic membrane targeting; also called cytochrome P450 reductase; full-length CPR; source: E. coli C41(DE3), solubilised from membranes with Triton X-100, purified (2',5'-ADP Sepharose …)
Regarding B1, the “stoichiometry N” value in assay [1] was 0.8 CPR : CYP (molar ratio); in assay [2], 1 CPR : CYP (molar ratio); in assay [3], 1.1 CPR : CYP (molar ratio).

The record behind these values is PMC5575521, “Liver microsomal lipid enhances the activity and redox coupling of colocalized cytochrome P450 reductase‐cytochrome P450 3A4 in nanodiscs” (The Febs Journal, 2017).
